Patent publication US20260116991A1 (HAINAN SIMCERE ZAIMING PHARMACEUTICAL, published 2026)
Where a chain is given by its changes, count along the chain named. One block for each binder: values may come before it.

Molecular target: T1, murine GPC3-His protein (Sino Biological, Cat. No. 50989-M08B) (murine, UniProt Q8CFZ4 25-558)
T1 construct: Bought protein; also called murine GPC3 protein; mouse GPC3-his protein; not shown: His tag
Assay: ELISA, coated antigen

T1 sequence (Q8CFZ4 25-558 limits assumed): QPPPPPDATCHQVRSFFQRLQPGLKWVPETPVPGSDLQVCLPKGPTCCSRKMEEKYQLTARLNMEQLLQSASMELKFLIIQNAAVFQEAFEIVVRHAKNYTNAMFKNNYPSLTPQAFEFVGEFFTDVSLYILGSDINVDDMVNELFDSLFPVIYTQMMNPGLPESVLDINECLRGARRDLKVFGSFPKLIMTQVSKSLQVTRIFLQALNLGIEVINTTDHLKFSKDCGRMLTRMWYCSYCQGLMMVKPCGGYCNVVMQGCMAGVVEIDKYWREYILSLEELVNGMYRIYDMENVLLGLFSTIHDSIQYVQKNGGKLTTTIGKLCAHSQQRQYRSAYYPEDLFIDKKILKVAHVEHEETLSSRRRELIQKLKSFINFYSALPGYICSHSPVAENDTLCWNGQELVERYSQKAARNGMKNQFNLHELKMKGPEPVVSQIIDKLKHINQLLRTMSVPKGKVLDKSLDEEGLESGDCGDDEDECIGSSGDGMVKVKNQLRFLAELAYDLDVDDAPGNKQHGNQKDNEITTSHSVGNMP

- binding result: no binding
B10: hAb007LH1L1d (antibody, human IgG1, V domains shown)
VH: EVQLVQSGAEVKKPGSSVKVSCKASGYTFSDYEMHWVRQAPGQGLEWMGTIDPETGNTAYNQKFKGRVTITADKSTSTAYMELSSLRSEDTAVYYCTRPYSLTYWGQGTLVTVSS
VL: DIVMTQTPLSLPVTPGEPASISCRSSQSFVHSNSDTYLQWYLQKPGQSPQLLIYKVSNRFSGVPDRFSGSGSGTDFTLKISRVEAEDVGVYYCFQGSHVPYTFGQGTKLEIK
notes: Humanized F3.81.19

- binding result: no binding
B11: hAb007LH1L1e (antibody, human IgG1, V domains shown)
VH: B10 VH
VL: B10 VL with S34V
notes: Humanized F3.81.19

- binding result: no binding
B12: hAb007LH2L1a (antibody, human IgG1, V domains shown)
VH: B10 VH with S30T
VL: B10 VL with N33D, S34G
notes: Humanized F3.81.19

- binding result: no binding
B13: hAb007LH2L1b (antibody, human IgG1, V domains shown)
VH: B10 VH with S30T
VL: B10 VL with S34R
notes: Humanized F3.81.19

- binding result: no binding
B14: hAb007LH3L1 (antibody, human IgG1, V domains shown)
VH: B10 VH with S30T, I70L
VL: B10 VL with S34G
notes: Humanized F3.81.19

- binding result: no binding
B15: hAb007LH3L1a (antibody, human IgG1, V domains shown)
VH: B10 VH with S30T, I70L
VL: B10 VL with N33D, S34G
notes: Humanized F3.81.19

- binding result: no binding
B16: hAb007LH3L1b (antibody, human IgG1, V domains shown)
VH: B10 VH with S30T, I70L
VL: B10 VL with S34R
notes: Humanized F3.81.19

The remaining lines, values behind:

B1: hAb006LH2L1a (antibody, human IgG1, V domains shown)
VH: B10 VH with S30T, M34I, T50A, E54K, K65M, P99Y, Y100F, L102F, T103A
VL: B10 VL with S28T, N33D, S34G, D35N
notes: Humanized F3.38.7
- binding result: no binding

B2: hAb006LH2L1b (antibody, human IgG1, V domains shown)
VH: B10 VH with S30T, M34I, T50A, E54K, K65M, P99Y, Y100F, L102F, T103A
VL: B10 VL with S28T, S34A, D35N
notes: Humanized F3.38.7
- binding result: no binding

B3: hAb006LH3L1a (antibody, human IgG1, V domains shown)
VH: B10 VH with S30T, M34I, T50A, E54K, K65M, I70L, P99Y, Y100F, L102F, T103A
VL: B10 VL with S28T, N33D, S34G, D35N
notes: Humanized F3.38.7
- binding result: no binding

B4: hAb006LH3L1d (antibody, human IgG1, V domains shown)
VH: B10 VH with S30T, M34I, T50A, E54K, K65M, I70L, P99Y, Y100F, L102F, T103A
VL: B10 VL with S28T, D35N
notes: Humanized F3.38.7
- binding result: no binding

B5: hAb006LH3L1e (antibody, human IgG1, V domains shown)
VH: B10 VH with S30T, M34I, T50A, E54K, K65M, I70L, P99Y, Y100F, L102F, T103A
VL: B10 VL with S28T, S34V, D35N
notes: Humanized F3.38.7
- binding result: no binding

B6: hAb007LH1L1 (antibody, human IgG1, V domains shown)
VH: B10 VH
VL: B10 VL with S34G
notes: Humanized F3.81.19
- binding result: no binding

B7: hAb007LH1L1a (antibody, human IgG1, V domains shown)
VH: B10 VH
VL: B10 VL with N33D, S34G
notes: Humanized F3.81.19
- binding result: no binding

B8: hAb007LH1L1b (antibody, human IgG1, V domains shown)
VH: B10 VH
VL: B10 VL with S34R
notes: Humanized F3.81.19
- binding result: no binding

B9: hAb007LH1L1c (antibody, human IgG1, V domains shown)
VH: B10 VH
VL: B10 VL with S34A
notes: Humanized F3.81.19
- binding result: no binding
